The results in this text go back to PMC4158700.

The target in test [1] is factor XIa with Ile183, Arg184 and Asp185 replaced with alanine (fXIa-Ala183-185) (human) (UniProt P03951). Put plainly: numerical fitting of full progress curves of fIX cleavage.
The target of test [2] is factor XIa with Arg184 replaced with Gly (fXIa-Gly184) (human) (UniProt P03951). The test is described as above.
Test [3] shares this target. Briefly: inhibition of chromogenic substrate.
Test [4] concerns the target recombinant wild type factor XIa (fXIaWT) (human) (UniProt P03951). Put plainly: inhibition of chromogenic substrate.
In test [5] the target is factor XIa with Ile183, Arg184 and Asp185 replaced with alanine (fXIa-Ala183-185) (human) (UniProt P03951).
The target in test [6] is factor XIa with Arg184 replaced with Gly (fXIa-Gly184) (human) (UniProt P03951).
The target of test [7] is recombinant factor XI zymogen with Arg184 replaced with Gly (fXI-Gly184) (human). Put plainly: non-reducing SDS-PAGE.
The target in test [8] is plasma fXIa with the active site irreversibly blocked by FPR-CMK (UniProt P03951). Put plainly: SPR.
Test [9] addresses recombinant wild type factor XI zymogen (fXIWT) (human). Briefly: non-reducing SDS-PAGE.

With “factor IXaβ (fIXaβ), fIX cleaved at Arg145-Ala146 and Arg180-Val181 (enzyme)”, the inhibitory constant (Ki) was 290 nM in [1], 500 nM in test [2], 190 nM in test [3] and 90 nM in test [4].

For the substance “factor IXα (fIXα), fIX cleaved at the Arg145-Ala146 bond (natural protein)”, the Ki1 (k-3/k3, fIXα released after the cleavage at Arg145) was 6 µM in test [1] and 0.4 µM in test [2]. Moreover, the Km2 for cleavage after Arg180 (KinTek fit of progress curves) in test [5] was 3 µM; in test [6], 0.2 µM.

As to “recombinant factor XI zymogen with Arg184 replaced with Gly (fXI-Gly184) (natural protein)”, the stoichiometry N in [7] turned out to be 2.

Substance “recombinant wild type factor IX (fIXWT) (from UniProt P00740 47-461) (natural protein)” displayed an equilibrium dissociation constant (Kd) in test [8] of 350 nM.

As for “recombinant wild type factor XI zymogen (fXIWT) (natural protein)”, the stoichiometry N in test [9] came out at 2.

By Ki is commonly meant the dissociation constant of the complex between target and ligand, obtained from inhibition or displacement. By stoichiometry N is commonly meant the number of molecules, sites or subunits per partner or assembly. For orientation: Kd means the equilibrium constant for the complex coming apart. Lower therefore signals higher affinity.
